tested on: AncSZ; assay: phosphorylation enrichment, bacterial display (enrichment ratio); higher = better substrate or ligand; peptides without Tyr show the background
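Note: 11-residue human phosphosite peptides and single-mutation variants displayed on the E. coli surface, counted by deep sequencing, each peptide's frequency after selection divided by its frequency in the unselected input library; frequency after pTyr selection over input frequency; kinase dosed for 20-30% of maximal phosphorylation in three min.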

Sequence	phosphorylation enrichment
NGRTGDVLQPE [PLCG2_Y1036_Y1036D]	0.971
QLCVNYPGGFT [PROS1_Y259_YF]	1.45
DAPVVYLGSFR [PRAG1_Y132]	0.773
KTEMLYHLTAR [XRCC2_Y59]	1.09
ALTRSYIRERV [CYP2C8_Y243_K247R]	0.768
SRKSEYLLPVA [MYLK_Y611]	0.748
KRAAIYNPVIY [RHO_Y301_S297R]	0.547
ERCAQYKKDVA [ALDOA_Y138_G142V]	0.726
DSIRDYEDGME [CLNS1A_Y214]	1.29
FVIISYVLIIR [OR1D2_Y218]	0.994
RGYRVYYTPDS [PTPRF_Y450]	1.22
VGNAAYQAGPL [STK36_Y1181]	0.553
SSQVLYKLEQS [THADA_Y701]	0.628
HLTNQYMQRVA [PABPC4_Y382]	0.525
VDDQIYYFRKP [PBRM1_Y1289_E1287Q]	2.93
FLELNYKEDEF [MME_Y502_YF]	1.34
HNVPIYEGYAL [ACTA1_Y168]	1.56

Sequence	phosphorylation enrichment
RGNKEYEEEKR [LENG1_Y96]	0.723
RLQEGYDHSFF [ESD_Y258_YF]	1.12
ERFSFYGMKAV [SLC15A2_Y61_YF]	1.08
SFVVRYNQPRV [GRIN2D_Y736_M733V_YF]	1.01
QSGGQYSSQGL [TNNI3K_Y788_A785G]	0.655
TLQSMYGCDMG [HLA-B_Y123_V127M]	0.939
QKPLGYYRVNL [GALE_Y104_D103G]	0.667
GNLLIYTKFGK [HGD_Y166_E168K]	1.31
IINENYDFLKG [NUP98_Y1664_YF]	0.82
IKIMGYSIRTI [IDS_Y490]	0.991
LQRVQYDLQKA [DSP_Y1512]	0.872
GTYVIYVRFGG [FLNB_Y1687]	1.22
VAVTKYCKEEF [ATP7B_Y1078_L1083F]	0.887
MALDRYVASCK [OR2B11_Y127_I130S]	0.649
NEANKYQISVN [FGB_Y368]	0.691
NLDCFYQQVTK [SEC16A_Y1041_R1039C]	1.54

molecular target: EPHB1 (UniProt P54762); assay: as above
Sequence (P54762 whole entry, looked up): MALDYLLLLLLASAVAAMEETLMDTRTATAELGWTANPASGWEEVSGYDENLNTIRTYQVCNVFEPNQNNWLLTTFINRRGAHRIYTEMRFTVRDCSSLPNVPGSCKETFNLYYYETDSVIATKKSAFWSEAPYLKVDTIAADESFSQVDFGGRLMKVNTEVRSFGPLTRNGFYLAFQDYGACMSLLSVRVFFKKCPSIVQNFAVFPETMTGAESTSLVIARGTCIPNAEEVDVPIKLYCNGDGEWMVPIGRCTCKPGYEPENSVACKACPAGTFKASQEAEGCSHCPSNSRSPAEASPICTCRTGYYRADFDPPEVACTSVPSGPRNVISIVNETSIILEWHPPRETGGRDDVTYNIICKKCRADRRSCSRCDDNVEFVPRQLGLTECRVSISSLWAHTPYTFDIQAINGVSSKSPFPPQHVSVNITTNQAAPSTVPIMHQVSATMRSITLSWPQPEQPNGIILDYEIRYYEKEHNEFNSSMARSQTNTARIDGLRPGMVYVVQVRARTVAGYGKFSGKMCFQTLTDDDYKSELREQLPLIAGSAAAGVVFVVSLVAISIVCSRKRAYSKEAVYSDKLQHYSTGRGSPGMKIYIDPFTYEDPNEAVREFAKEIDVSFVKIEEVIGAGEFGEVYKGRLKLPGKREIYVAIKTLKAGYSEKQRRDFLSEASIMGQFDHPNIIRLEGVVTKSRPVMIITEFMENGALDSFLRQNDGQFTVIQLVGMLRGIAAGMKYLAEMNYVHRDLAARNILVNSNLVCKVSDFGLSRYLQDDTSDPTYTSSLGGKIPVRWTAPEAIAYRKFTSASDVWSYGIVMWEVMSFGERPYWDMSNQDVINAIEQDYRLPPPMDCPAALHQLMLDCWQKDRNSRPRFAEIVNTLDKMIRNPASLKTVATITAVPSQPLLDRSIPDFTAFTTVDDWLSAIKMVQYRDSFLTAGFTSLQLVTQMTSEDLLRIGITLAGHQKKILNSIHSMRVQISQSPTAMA

Sequence	phosphorylation enrichment
NGRTGDVLQPE [PLCG2_Y1036_Y1036D]	0.598
QLCVNYPGGFT [PROS1_Y259_YF]	0.792
DAPVVYLGSFR [PRAG1_Y132]	0.402
KTEMLYHLTAR [XRCC2_Y59]	0.53
ALTRSYIRERV [CYP2C8_Y243_K247R]	0.373
SRKSEYLLPVA [MYLK_Y611]	0.504
KRAAIYNPVIY [RHO_Y301_S297R]	0.398
ERCAQYKKDVA [ALDOA_Y138_G142V]	0.527
DSIRDYEDGME [CLNS1A_Y214]	0.749
FVIISYVLIIR [OR1D2_Y218]	0.561
RGYRVYYTPDS [PTPRF_Y450]	1.24
VGNAAYQAGPL [STK36_Y1181]	0.358
SSQVLYKLEQS [THADA_Y701]	0.476
HLTNQYMQRVA [PABPC4_Y382]	0.307
VDDQIYYFRKP [PBRM1_Y1289_E1287Q]	1.08
FLELNYKEDEF [MME_Y502_YF]	0.612
HNVPIYEGYAL [ACTA1_Y168]	26

Sequence	phosphorylation enrichment
RGNKEYEEEKR [LENG1_Y96]	0.519
RLQEGYDHSFF [ESD_Y258_YF]	0.457
ERFSFYGMKAV [SLC15A2_Y61_YF]	0.647
SFVVRYNQPRV [GRIN2D_Y736_M733V_YF]	0.559
QSGGQYSSQGL [TNNI3K_Y788_A785G]	0.506
TLQSMYGCDMG [HLA-B_Y123_V127M]	0.709
QKPLGYYRVNL [GALE_Y104_D103G]	0.445
GNLLIYTKFGK [HGD_Y166_E168K]	0.921
IINENYDFLKG [NUP98_Y1664_YF]	0.677
IKIMGYSIRTI [IDS_Y490]	0.494
LQRVQYDLQKA [DSP_Y1512]	1.3
GTYVIYVRFGG [FLNB_Y1687]	0.604
VAVTKYCKEEF [ATP7B_Y1078_L1083F]	0.605
MALDRYVASCK [OR2B11_Y127_I130S]	0.465
NEANKYQISVN [FGB_Y368]	0.39
NLDCFYQQVTK [SEC16A_Y1041_R1039C]	1.1

molecular target: EPHB2 (UniProt P29323); assay: as above
Sequence (P29323 whole entry, looked up): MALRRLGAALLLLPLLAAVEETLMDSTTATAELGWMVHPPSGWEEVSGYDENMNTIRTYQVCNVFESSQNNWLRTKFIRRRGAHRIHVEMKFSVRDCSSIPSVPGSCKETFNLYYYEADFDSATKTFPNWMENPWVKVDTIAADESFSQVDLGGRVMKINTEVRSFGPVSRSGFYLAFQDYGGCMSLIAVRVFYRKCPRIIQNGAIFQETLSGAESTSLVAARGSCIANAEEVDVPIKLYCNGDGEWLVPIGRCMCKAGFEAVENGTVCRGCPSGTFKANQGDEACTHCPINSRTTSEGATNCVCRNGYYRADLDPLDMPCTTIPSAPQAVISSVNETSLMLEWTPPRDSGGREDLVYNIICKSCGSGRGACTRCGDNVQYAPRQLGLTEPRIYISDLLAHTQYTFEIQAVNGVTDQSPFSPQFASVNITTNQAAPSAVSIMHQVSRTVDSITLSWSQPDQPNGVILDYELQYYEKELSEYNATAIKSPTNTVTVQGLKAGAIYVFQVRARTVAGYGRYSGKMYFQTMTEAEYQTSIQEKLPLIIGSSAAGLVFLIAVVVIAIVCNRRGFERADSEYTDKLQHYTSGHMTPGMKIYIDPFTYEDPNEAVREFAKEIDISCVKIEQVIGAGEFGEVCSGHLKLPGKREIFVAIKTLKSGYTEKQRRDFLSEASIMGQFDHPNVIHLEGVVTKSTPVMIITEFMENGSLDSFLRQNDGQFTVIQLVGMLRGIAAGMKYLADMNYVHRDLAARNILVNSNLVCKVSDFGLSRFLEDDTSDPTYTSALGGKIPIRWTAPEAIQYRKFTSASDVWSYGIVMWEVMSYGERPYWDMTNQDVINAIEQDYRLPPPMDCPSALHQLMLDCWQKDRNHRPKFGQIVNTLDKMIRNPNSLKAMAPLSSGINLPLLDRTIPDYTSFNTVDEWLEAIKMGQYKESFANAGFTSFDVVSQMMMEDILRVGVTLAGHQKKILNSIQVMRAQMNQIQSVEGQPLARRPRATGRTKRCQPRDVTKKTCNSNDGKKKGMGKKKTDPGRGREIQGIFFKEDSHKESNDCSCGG

Sequence	phosphorylation enrichment
NGRTGDVLQPE [PLCG2_Y1036_Y1036D]	0.468
QLCVNYPGGFT [PROS1_Y259_YF]	0.697
DAPVVYLGSFR [PRAG1_Y132]	0.449
KTEMLYHLTAR [XRCC2_Y59]	0.541
ALTRSYIRERV [CYP2C8_Y243_K247R]	0.457
SRKSEYLLPVA [MYLK_Y611]	0.512
KRAAIYNPVIY [RHO_Y301_S297R]	0.415
ERCAQYKKDVA [ALDOA_Y138_G142V]	0.607
DSIRDYEDGME [CLNS1A_Y214]	0.784
FVIISYVLIIR [OR1D2_Y218]	0.325
RGYRVYYTPDS [PTPRF_Y450]	1.04
VGNAAYQAGPL [STK36_Y1181]	0.437
SSQVLYKLEQS [THADA_Y701]	0.592
HLTNQYMQRVA [PABPC4_Y382]	0.316
VDDQIYYFRKP [PBRM1_Y1289_E1287Q]	0.98
FLELNYKEDEF [MME_Y502_YF]	0.569
HNVPIYEGYAL [ACTA1_Y168]	35.1

Sequence	phosphorylation enrichment
RGNKEYEEEKR [LENG1_Y96]	0.493
RLQEGYDHSFF [ESD_Y258_YF]	0.364
ERFSFYGMKAV [SLC15A2_Y61_YF]	0.605
SFVVRYNQPRV [GRIN2D_Y736_M733V_YF]	0.517
QSGGQYSSQGL [TNNI3K_Y788_A785G]	0.434
TLQSMYGCDMG [HLA-B_Y123_V127M]	0.823
QKPLGYYRVNL [GALE_Y104_D103G]	0.482
GNLLIYTKFGK [HGD_Y166_E168K]	0.666
IINENYDFLKG [NUP98_Y1664_YF]	0.726
IKIMGYSIRTI [IDS_Y490]	0.52
LQRVQYDLQKA [DSP_Y1512]	0.907
GTYVIYVRFGG [FLNB_Y1687]	0.696
VAVTKYCKEEF [ATP7B_Y1078_L1083F]	0.568
MALDRYVASCK [OR2B11_Y127_I130S]	0.593
NEANKYQISVN [FGB_Y368]	0.411
NLDCFYQQVTK [SEC16A_Y1041_R1039C]	1.08

molecular target: FGFR1 (UniProt P11362); assay: as above
Sequence (P11362 whole entry, looked up): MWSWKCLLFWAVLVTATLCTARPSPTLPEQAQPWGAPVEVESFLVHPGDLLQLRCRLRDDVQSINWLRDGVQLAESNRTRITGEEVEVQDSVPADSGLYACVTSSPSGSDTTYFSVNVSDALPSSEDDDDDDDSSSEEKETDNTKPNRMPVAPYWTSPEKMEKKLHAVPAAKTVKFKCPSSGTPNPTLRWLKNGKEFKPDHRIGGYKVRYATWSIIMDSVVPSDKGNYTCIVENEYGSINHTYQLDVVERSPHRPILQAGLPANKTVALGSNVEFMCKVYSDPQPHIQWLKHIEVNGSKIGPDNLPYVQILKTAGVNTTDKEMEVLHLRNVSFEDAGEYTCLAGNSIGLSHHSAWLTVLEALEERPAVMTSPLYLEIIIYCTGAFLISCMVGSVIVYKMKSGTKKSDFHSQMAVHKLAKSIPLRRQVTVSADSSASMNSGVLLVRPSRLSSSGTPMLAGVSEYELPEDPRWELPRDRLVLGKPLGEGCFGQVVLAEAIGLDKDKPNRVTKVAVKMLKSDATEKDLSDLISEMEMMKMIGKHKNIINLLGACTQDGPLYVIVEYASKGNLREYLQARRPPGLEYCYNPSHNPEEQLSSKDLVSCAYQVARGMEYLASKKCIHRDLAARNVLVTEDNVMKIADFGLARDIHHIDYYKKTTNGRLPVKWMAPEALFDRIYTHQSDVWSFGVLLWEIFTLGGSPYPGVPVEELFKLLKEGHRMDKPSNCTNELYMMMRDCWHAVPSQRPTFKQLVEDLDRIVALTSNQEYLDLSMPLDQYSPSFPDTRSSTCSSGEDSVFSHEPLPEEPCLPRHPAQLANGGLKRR

Sequence	phosphorylation enrichment
NGRTGDVLQPE [PLCG2_Y1036_Y1036D]	0.404
QLCVNYPGGFT [PROS1_Y259_YF]	0.698
DAPVVYLGSFR [PRAG1_Y132]	0.418
KTEMLYHLTAR [XRCC2_Y59]	0.821
ALTRSYIRERV [CYP2C8_Y243_K247R]	0.421
SRKSEYLLPVA [MYLK_Y611]	0.392
KRAAIYNPVIY [RHO_Y301_S297R]	0.577
ERCAQYKKDVA [ALDOA_Y138_G142V]	0.579
DSIRDYEDGME [CLNS1A_Y214]	0.628
FVIISYVLIIR [OR1D2_Y218]	0.672
RGYRVYYTPDS [PTPRF_Y450]	0.784
VGNAAYQAGPL [STK36_Y1181]	0.407
SSQVLYKLEQS [THADA_Y701]	0.434
HLTNQYMQRVA [PABPC4_Y382]	0.402
VDDQIYYFRKP [PBRM1_Y1289_E1287Q]	8.8
FLELNYKEDEF [MME_Y502_YF]	0.565
HNVPIYEGYAL [ACTA1_Y168]	0.792

Sequence	phosphorylation enrichment
RGNKEYEEEKR [LENG1_Y96]	0.407
RLQEGYDHSFF [ESD_Y258_YF]	0.52
ERFSFYGMKAV [SLC15A2_Y61_YF]	0.505
SFVVRYNQPRV [GRIN2D_Y736_M733V_YF]	0.499
QSGGQYSSQGL [TNNI3K_Y788_A785G]	0.486
TLQSMYGCDMG [HLA-B_Y123_V127M]	0.8
QKPLGYYRVNL [GALE_Y104_D103G]	0.636
GNLLIYTKFGK [HGD_Y166_E168K]	0.572
IINENYDFLKG [NUP98_Y1664_YF]	0.518
IKIMGYSIRTI [IDS_Y490]	0.424
LQRVQYDLQKA [DSP_Y1512]	0.897
GTYVIYVRFGG [FLNB_Y1687]	0.511
VAVTKYCKEEF [ATP7B_Y1078_L1083F]	0.563
MALDRYVASCK [OR2B11_Y127_I130S]	0.397
NEANKYQISVN [FGB_Y368]	0.372
NLDCFYQQVTK [SEC16A_Y1041_R1039C]	0.934
